This passage reports pKa results from publication PMC3348462.

This data set addresses Glu148 (UniProt position 148, MVLGREGPTVQ). Briefly: kinetics. The conditions noted are these: membrane-reconstituted, turning over in Cl-/36Cl- exchange (Cl- present).
Regarding “CLC-ec1 (H+/Cl- exchange transporter ClcA), wild type (Escherichia coli)”, the pKa stood at 6.2±0.1. Then CLC-ec1 E203Q (Escherichia coli; E203Q), with 6.2±0.5; and CLC-ec1 Y445L (Escherichia coli; Y445L), with 4.7±0.1.

A word on the pKa: it is the pH at which an ionisable group is half protonated.
